Target: oncofetal fibronectin (human) (UniProt P02751)
Assay: lateral flow sandwich; FDC-6 blue latex conjugate and immobilised goat anti-fibronectin; TLiIQ reflectance reader
Settings: scale: reflectance signal

UniProt P02751, sequence (P02751 32-2477): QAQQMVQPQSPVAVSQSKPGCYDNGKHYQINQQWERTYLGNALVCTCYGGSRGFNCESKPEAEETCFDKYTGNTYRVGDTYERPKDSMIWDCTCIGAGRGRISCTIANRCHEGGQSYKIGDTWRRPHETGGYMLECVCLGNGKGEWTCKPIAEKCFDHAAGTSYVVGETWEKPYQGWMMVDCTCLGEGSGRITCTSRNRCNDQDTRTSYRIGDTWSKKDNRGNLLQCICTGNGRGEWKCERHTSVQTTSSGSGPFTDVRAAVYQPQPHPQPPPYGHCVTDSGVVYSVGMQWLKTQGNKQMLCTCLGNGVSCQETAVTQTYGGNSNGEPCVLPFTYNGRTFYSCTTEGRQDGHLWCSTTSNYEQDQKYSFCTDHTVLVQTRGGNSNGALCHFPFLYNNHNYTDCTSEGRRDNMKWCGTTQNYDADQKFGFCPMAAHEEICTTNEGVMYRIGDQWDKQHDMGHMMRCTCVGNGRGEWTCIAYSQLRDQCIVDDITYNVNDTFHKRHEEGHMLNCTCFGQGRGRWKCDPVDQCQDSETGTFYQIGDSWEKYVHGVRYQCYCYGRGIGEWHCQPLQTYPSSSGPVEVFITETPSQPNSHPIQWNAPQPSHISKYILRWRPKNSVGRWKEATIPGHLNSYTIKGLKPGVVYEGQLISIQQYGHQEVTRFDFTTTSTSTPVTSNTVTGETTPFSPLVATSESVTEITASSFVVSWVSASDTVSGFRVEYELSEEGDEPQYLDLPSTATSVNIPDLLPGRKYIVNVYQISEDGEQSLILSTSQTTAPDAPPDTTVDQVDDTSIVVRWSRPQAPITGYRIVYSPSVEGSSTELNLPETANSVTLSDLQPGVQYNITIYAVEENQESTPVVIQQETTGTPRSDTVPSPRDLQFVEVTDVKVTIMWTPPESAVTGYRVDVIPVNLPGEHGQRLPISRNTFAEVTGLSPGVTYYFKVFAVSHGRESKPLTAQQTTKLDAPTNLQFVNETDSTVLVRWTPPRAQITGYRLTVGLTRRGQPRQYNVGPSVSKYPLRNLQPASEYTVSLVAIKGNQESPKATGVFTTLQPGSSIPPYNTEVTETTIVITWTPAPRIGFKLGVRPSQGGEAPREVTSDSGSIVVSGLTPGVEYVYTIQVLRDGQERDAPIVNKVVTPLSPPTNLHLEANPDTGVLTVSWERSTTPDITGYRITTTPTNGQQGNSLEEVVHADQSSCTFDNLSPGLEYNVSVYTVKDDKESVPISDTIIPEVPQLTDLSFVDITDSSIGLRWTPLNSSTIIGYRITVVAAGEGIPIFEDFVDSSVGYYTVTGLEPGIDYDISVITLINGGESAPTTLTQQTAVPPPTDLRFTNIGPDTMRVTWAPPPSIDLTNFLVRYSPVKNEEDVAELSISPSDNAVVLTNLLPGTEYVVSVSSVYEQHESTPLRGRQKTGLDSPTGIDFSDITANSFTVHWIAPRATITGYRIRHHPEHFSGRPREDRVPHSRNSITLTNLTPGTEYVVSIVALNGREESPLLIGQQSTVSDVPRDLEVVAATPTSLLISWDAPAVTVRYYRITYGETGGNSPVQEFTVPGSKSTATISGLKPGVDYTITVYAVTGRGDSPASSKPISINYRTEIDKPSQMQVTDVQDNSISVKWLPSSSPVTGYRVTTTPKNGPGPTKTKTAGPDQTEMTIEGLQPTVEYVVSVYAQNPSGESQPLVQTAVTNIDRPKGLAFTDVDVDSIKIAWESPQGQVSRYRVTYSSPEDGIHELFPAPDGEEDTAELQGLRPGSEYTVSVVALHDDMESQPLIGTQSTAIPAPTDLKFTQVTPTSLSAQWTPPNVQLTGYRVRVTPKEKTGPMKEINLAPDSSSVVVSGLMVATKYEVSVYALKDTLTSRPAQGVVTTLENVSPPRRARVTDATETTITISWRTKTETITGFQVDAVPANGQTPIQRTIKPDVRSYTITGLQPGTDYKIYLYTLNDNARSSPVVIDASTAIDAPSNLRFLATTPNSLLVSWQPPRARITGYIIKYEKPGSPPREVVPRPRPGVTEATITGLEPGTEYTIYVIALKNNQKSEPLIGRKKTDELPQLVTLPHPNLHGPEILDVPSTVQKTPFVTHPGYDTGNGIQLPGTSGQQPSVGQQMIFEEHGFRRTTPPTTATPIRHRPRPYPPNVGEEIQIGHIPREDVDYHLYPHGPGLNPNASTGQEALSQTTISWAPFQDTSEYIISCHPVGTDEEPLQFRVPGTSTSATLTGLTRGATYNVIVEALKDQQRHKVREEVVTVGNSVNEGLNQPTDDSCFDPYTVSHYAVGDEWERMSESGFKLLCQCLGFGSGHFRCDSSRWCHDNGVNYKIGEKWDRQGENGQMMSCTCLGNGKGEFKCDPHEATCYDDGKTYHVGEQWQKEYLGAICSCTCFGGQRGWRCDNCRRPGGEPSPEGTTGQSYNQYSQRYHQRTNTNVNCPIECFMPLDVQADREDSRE

reflectance signal: 0.315
Substance: monoclonal antibody FDC-6, produced by the hybridoma ATCC HB 9018

From patent publication US20060024723A1
